Reference: paper PMC10842050 (Journal of molecular biology, 2023)

T1: P22 portal protein gp1 (bacteriophage P22), P26744
T1 chain: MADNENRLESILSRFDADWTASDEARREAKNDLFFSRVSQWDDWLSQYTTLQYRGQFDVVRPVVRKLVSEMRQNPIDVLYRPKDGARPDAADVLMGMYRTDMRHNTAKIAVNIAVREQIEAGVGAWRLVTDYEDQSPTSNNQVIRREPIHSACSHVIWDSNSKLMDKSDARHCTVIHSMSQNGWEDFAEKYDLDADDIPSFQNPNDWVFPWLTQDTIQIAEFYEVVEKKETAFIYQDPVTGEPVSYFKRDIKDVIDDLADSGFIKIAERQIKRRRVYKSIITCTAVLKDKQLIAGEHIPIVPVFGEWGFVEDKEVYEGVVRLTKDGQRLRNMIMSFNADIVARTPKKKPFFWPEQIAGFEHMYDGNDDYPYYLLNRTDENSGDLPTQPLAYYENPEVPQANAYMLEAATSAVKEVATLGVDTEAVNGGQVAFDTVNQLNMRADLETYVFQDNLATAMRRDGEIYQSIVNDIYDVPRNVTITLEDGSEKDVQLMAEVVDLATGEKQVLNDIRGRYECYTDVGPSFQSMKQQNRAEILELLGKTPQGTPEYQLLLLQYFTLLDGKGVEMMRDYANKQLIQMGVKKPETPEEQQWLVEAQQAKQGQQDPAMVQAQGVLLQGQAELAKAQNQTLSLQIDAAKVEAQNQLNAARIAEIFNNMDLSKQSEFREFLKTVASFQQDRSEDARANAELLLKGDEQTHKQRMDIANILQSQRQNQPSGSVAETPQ

B1: P22 tail needle gp26 (natural protein, bacteriophage P22)
chain: MADPSLNNPVVIQATRLDASILPRNVFSKSYLLYVIAQGTDVGAIAGKANEAGQGAYDAQVKNDEQDVELADHEARIKQLRIDVDDHESRITANTKAITALNVRVTTAEGEIASLQTNVSALDGRVTTAENNISALQADYVSKTATTSQSLASPLNVTTSYSVGGKKVLGARQTGWTAATGTANKGVFDADLTFAVSDTYTQSEIQAIANALITERRRTKALEDALRAHGLID
B2: P22 portal protein gp1, P26744 1-725 (natural protein)
chain: MADNENRLESILSRFDADWTASDEARREAKNDLFFSRVSQWDDWLSQYTTLQYRGQFDVVRPVVRKLVSEMRQNPIDVLYRPKDGARPDAADVLMGMYRTDMRHNTAKIAVNIAVREQIEAGVGAWRLVTDYEDQSPTSNNQVIRREPIHSACSHVIWDSNSKLMDKSDARHCTVIHSMSQNGWEDFAEKYDLDADDIPSFQNPNDWVFPWLTQDTIQIAEFYEVVEKKETAFIYQDPVTGEPVSYFKRDIKDVIDDLADSGFIKIAERQIKRRRVYKSIITCTAVLKDKQLIAGEHIPIVPVFGEWGFVEDKEVYEGVVRLTKDGQRLRNMIMSFNADIVARTPKKKPFFWPEQIAGFEHMYDGNDDYPYYLLNRTDENSGDLPTQPLAYYENPEVPQANAYMLEAATSAVKEVATLGVDTEAVNGGQVAFDTVNQLNMRADLETYVFQDNLATAMRRDGEIYQSIVNDIYDVPRNVTITLEDGSEKDVQLMAEVVDLATGEKQVLNDIRGRYECYTDVGPSFQSMKQQNRAEILELLGKTPQGTPEYQLLLLQYFTLLDGKGVEMMRDYANKQLIQMGVKKPETPEEQQWLVEAQQAKQGQQDPAMVQAQGVLLQGQAELAKAQNQTLSLQIDAAKVEAQNQLNAARIAEIFNNMDLSKQSEFREFLKTVASFQQDRSEDARANAELLLKGDEQTHKQRMDIANILQSQRQNQPSGSVAETPQ
B3: P22 head-to-tail adapter gp4 (natural protein, bacteriophage P22)
chain: MQIKTKGDLVRAALRKLGVASDATLTDVEPQSMQDAVDDLEAMMAEWYQDGKGIITGYVFSDDENPPAEGDDHGLRSSAVSAVFHNLACRIAPDYALEATAKIIATAKYGKELLYKQTAISRAKRAPYPSRMPTGSGNSFANLNEWHYFPGEQNADSTTPHDEGNG

What was measured:
cryo-EM structure = target: the molecule itself; assay: cryo-EM structure
[1] = target: T1, P22 portal protein gp1 (bacteriophage …); assay: cryo-EM structure; details: remark: other sources report otherwise

Row | Binder | stoichiometry N (cryo-EM structure) | stoichiometry N [1]
1 | B1 | 3 | –
2 | B2 | – | 12
3 | B3 | 12 | –
